# B1: 26-mer hemimethylated CpG DNA (dsDNA)
# DNA 1: ACACCAAGCCTGCGGAGGCTCACGGA
# DNA 2: TCCGTGAGCCTCCGCAGGCTTGGTGT
# modifications: 5-methyl-2'-deoxycytidine at position 13 of strand 1 (upper)
# Molecular target: hDNMT1 351-1600 R582E (Homo sapiens, UniProt P26358 351-1600, R582E)
# Experiment: EMSA
# hDNMT1 351-1600 R582E, sequence (P26358 351-1600 R582E): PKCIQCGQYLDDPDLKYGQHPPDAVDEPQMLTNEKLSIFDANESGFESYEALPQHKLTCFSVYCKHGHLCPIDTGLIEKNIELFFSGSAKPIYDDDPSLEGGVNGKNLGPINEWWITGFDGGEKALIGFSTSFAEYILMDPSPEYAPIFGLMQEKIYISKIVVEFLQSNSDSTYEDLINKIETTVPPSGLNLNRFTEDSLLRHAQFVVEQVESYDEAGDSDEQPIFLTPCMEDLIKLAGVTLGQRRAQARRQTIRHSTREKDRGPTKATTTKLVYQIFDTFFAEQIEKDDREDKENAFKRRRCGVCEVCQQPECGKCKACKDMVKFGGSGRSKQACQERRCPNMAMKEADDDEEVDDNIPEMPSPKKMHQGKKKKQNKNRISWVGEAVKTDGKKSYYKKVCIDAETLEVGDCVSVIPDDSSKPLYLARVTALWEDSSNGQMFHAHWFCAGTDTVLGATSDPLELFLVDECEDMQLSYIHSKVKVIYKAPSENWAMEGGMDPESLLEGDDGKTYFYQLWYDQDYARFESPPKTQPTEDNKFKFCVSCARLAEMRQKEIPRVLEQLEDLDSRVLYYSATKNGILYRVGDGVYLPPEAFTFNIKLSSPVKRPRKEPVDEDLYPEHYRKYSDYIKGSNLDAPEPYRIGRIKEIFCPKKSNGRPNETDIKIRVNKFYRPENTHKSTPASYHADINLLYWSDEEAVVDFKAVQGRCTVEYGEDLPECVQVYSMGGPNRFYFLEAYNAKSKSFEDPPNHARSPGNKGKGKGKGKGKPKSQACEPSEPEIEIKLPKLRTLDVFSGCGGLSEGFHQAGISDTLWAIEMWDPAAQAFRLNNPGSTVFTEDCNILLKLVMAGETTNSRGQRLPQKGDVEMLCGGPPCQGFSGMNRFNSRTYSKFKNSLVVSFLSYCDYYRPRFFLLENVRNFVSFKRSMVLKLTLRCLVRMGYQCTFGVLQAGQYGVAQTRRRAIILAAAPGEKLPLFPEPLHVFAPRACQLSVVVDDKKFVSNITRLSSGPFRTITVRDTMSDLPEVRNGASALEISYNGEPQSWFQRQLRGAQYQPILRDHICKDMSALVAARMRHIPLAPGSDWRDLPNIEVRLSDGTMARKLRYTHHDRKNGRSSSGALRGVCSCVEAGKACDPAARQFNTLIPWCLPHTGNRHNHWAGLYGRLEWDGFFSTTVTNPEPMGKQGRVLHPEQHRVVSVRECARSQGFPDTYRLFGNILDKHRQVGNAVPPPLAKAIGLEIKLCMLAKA
binder,measurement,value
B1,binding result,binds

# — article PMC4520738
